Test results taken from article PMC6393709.

Target: PARP1 (protein used in the SPRi assay) (UniProt P09874)
Experiment: SPR; SPRi on a PlexArray HT (V3), 25°C, 1x PBS pH 7.4

Chain of UniProt P09874 (P09874 whole entry): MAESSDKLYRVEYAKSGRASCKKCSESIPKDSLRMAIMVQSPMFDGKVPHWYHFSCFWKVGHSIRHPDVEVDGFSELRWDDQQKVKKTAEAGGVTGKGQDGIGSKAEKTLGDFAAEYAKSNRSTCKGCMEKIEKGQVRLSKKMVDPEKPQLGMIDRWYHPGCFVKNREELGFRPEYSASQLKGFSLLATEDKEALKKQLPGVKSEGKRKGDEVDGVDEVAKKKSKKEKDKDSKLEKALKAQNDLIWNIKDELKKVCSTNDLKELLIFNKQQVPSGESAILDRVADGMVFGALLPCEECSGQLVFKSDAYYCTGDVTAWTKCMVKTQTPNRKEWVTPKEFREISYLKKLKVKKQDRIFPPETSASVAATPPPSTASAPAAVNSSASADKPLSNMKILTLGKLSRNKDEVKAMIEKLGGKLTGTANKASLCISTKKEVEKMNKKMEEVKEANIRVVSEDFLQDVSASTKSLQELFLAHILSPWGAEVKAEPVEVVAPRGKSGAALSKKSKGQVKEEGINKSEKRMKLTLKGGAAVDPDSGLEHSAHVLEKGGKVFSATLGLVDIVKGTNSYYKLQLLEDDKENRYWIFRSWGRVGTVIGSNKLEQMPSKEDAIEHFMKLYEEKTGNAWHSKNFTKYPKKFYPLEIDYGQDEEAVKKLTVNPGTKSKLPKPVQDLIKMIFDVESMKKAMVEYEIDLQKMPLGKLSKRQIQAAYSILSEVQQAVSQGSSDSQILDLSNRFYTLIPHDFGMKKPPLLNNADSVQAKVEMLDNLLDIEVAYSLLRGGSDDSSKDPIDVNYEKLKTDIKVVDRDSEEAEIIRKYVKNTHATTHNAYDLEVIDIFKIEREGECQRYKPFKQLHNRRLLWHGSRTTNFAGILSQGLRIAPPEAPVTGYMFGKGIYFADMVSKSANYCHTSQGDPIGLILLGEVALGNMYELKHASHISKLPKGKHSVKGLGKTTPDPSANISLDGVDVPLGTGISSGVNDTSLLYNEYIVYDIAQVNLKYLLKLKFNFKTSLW

Kd: 13.6 nM
Substance: F-actin domain of ABL1 (domain or fragment)
